Here are results for one molecule from patent publication US8835136B2, “Engineered amine dehydrogenases and methods of use thereof” (Georgia Tech Research Corporation, priority 2012, dated 2014).

Data set [1] is described as follows: Thermostability by circular dichroism (PheDH). The data set is classed as physicochemical. The source says:
The thermostability of the AmDH was compared to its wild-type scaffold using two different methods, circular dichroism (CD) and a temperature versus activity profile. The mutation of the enzyme scaffold has affected the thermostability, in addition to the enzyme's function. […] Beyond 30 degrees, there is an earlier onset in the pronounced loss of structure of the double variant compared to the wild type; however, the slope folded fraction over temperature stays constant, indicative of constant enthalpy of melting. The K77S N276L mutations have slightly destabilized the protein structure, resulting in a melting point of 59.9° C., 4.4° C. less than the wild type. The specific cause for this change is difficult to determine. It likely to be either disruption of the ‘ideal’ packing of the wild-type enzyme's hydrophobic core or a net decrease in hydrophobicity by the amino acid substitutions which leads to a lower folding entropy.

Data set [2] is described as follows: Enantioselectivity of PFPA amination, chiral gas chromatography. It counts as biochemical. Particulars: chiral GC after TFAA derivatization. The source says:
Equally important to conversion is maintaining the selectivity of the enzyme after altering the substrate specificity. Preservation of the wild type (S)-selectivity towards phenylalanine will result in the asymmetric production of (R)-1-(4-fluorophenyl)-propyl-2-amine due to a change in Cahn-Ingold-Prelaw priority. The product amine resulting from enzymatic conversion with the co-factor recycle was isolated and derivatized using trifluoroacetic anhydride for analysis via chiral gas chromatography. An enantiomeric excess of >99.8% toward (R)-1-(4-fluorophenyl)-propyl-2-amine was confirmed, however, further resolution of the selectivity was limited by the separation capability of the chiral column. Throughout all experiments, the (S)-enantiomer remained below the detection limits. Even as the enzyme approaches levels of conversion beyond 90%, the high enantioselectivity toward (R)-1-(4-fluorophenyl)-propyl-2-amine is maintained. This renders the AmDH/GDH system a viable method for the production of chiral amines.

B1: K77S N276L: PheDH-AmDH double variant, SEQ ID NO:2; PheDH library 1 hit 1H4 (protein)
chain: SLVEKTSIIKDFTLFEKMSEHEQVVFCNDPATGLRAIIAIHDTTLGPALGGCRMQPYNSVEEALEDALRLSKGMTYSCAASDVDFGGGKAVIIGDPQKDKSPELFRAFGQFVDSLGGRFYTGTDMGTNMEDFIHAMKETNCIVGVPEAYGGGGDSSIPTAMGVLYGIKATNKMLFGKDDLGGVTYAIQGLGKVGYKVAEGLLEEGAHLFVTDINEQTLEAIQEKAKTTSGSVTVVASDEIYSQEADVFVPCAFGGVVNDETMKQFKVKAIAGSANLQLLTEDHGRHLADKGILYAPDYIVNSGGLIQVADELYEVNKERVLAKTKHIYDAILEVYQQAELDQITTMEAANRMCEQRMAARGRRNSFFTSSVKPKWDIRN
In the case of B1, in data set [1], the “decrease of melting point versus the wild type” value was 4.4 °C. Further, the melting point in data set [1] (100 μg mL-1, 50 mM sodium phosphate pH 8.0) is 59.9 °C. Moreover, in data set [2], the “enantiomeric excess toward (R)-1-(4-fluorophenyl)-propyl-2-amine” value was greater than 99.8%.
